Assay results reported in article PMC5737704, “The herpes viral transcription factor ICP4 forms a novel DNA recognition complex” (Nucleic Acids Research, 2017).

Tests used:
[1] = biological target: T1, ICP4N (ICP4 DNA binding domain) (Herpes simplex virus 1, UniProt P08392 258-487); assay: SPR; 2 mM Mg2+; nanomolar Kd, value only in Fig 5C; SPR: 20 mM HEPES, 200 mM NaCl, 2 mM MgCl2, 0.05% Tween-20, pH 7.4, 25 C; NMR: 20 mM MES, 50 mM NaCl, 50 mM L-Arg, 50 mM L-Glu, 1 mM TCEP, 2 mM MgCl2, pH 6.6, 25 C; conditions: protein: recombinant; tags: N-terminal Strep-tag, HRV3C-cleaved (removed); chain copies: 2; label: 5' biotin on forward strand; blunt
T1 sequence: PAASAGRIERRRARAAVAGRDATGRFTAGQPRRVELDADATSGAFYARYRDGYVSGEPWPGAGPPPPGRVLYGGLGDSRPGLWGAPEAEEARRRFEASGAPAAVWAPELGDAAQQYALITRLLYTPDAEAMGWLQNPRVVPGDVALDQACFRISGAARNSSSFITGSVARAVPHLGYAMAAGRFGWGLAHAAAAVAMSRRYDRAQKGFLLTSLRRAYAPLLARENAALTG

[2] = biological target: the molecule itself; assay: SEC-MALS; 0.5 ml at 1 mg/ml on Superdex 75 or Superdex 200 10/300GL in 20 mM HEPES, 150 mM NaCl, 50 mM L-Arg, 50 mM L-Glu, 0.5 mM TCEP, pH 7.9; free protein and (ICP4N) with IE3_19mer DNA
[3] = biological target: T1, ICP4N (ICP4 DNA binding domain); assay: X-ray crystallography; 2.28 A; SPR: 20 mM HEPES, 200 mM NaCl, 2 mM MgCl2, 0.05% Tween-20, pH 7.4, 25 C; NMR: 20 mM MES, 50 mM NaCl, 50 mM L-Arg, 50 mM L-Glu, 1 mM TCEP, 2 mM MgCl2, pH 6.6, 25 C; conditions: protein: recombinant; tags: N-terminal Strep-tag, HRV3C-cleaved (removed); chain copies: 2; blunt
[4] = biological target: T2, ICP4NdeltaIDR (ICP4deltaIDR) (Herpes simplex virus 1, UniProt P08392 288-487); assay: X-ray crystallography; 2.12 A; SPR: 20 mM HEPES, 200 mM NaCl, 2 mM MgCl2, 0.05% Tween-20, pH 7.4, 25 C; NMR: 20 mM MES, 50 mM NaCl, 50 mM L-Arg, 50 mM L-Glu, 1 mM TCEP, 2 mM MgCl2, pH 6.6, 25 C; conditions: protein: recombinant; tags: N-terminal Strep-tag, HRV3C-cleaved (removed); chain copies: 2; blunt
T2 sequence: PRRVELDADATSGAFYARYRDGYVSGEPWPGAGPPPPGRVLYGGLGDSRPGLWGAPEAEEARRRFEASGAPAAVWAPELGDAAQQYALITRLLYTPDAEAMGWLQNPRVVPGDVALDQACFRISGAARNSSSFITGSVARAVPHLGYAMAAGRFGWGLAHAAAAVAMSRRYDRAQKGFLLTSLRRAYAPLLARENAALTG

B1: IE3_19mer, biotinylated (dsDNA)
DNA 1: CCGATCGTCCACACGGAGC
DNA 2: GCTCCGTGTGGACGATCGG
B1: binds [1].

B2: truncated ICP4 DNA binding domain, residues 288–487 (ICP4NΔIDR) (domain or fragment)
chain: T2 sequence
notes: Strep-tag removed with HRV3C protease; also called ICP4ΔIDR; ICP4NdIDR; source: E. coli T7 Express LysY, purified (Strep-Tactin, Superdex 75); not shown: Strep-tag, N-terminal, cleaved
B2 was tested, and the “stoichiometry N” value [2] was 2.

B3: IE3_19mer (dsDNA)
DNA 1: CCGATCGTCCACACGGAGC
DNA 2: GCTCCGTGTGGACGATCGG
B3: binds [3].

B4: ICP4 DNA binding domain, residues 258–487 (ICP4N) (domain or fragment)
chain: T1 sequence
notes: gene synthesised, codon optimised for E. coli; Strep-tag removed with HRV3C protease; Homodimer by SEC-MALS, AUC and crystal structure; also called ICP4 DBD; source: E. coli T7 Express LysY, purified (Strep-Tactin, Superdex 75); not shown: Strep-tag, N-terminal, cleaved
B4 was tested, and the “stoichiometry N” value [2] was 2.

B5: IE3_12mer (dsDNA)
DNA 1: CCGATCGTCCAC
DNA 2: GTGGACGATCGG
B5: binds [4].
